The supplement of paper PMC10567573

B1: DCAF4 (parent)
chain: DSHILLCLMGLAETPGCATLLPAS

Variants of: B1
Assay: protein stability index of a GFP-peptide fusion (GPS, HEK-293T) (PSI 1-6); higher = more stable
Conditions: c terminus: a fixed tail appended
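Further: lentivirally expressed fusions sorted by FACS into six bins by GFP to DsRed ratio, PSI derived from sequencing read proportions per bin multiplied by bin number.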

Protein stability index of substitutions, site by site:
E13: I 4.29 | K 2.59 | L 2.42 | M 3.96 | N 2.83 | P 2 | Q 2.36 | S 3.26 | T 2.89 | V 4.1 | Y 3.33
T14: A 2.93 | C 2.24 | D 1.92 | E 2.95 | G 2.77 | H 3.66 | K 3.42 | L 3.09 | M 2.26 | N 3.05 | P 2.53 | R 2.05 | S 2.47 | V 2.66 | W 2.89 | Y 3.79
P15: A 3.15 | C 2.61 | D 2.56 | E 2.06 | F 3.63 | G 2.54 | I 2.35 | K 1.78 | L 3.33 | M 2.44 | N 1.35 | R 2.66 | S 2.52 | T 2.3 | V 2.59 | W 2.46 | Y 2.44
G16: A 3.16 | C 3.37 | D 3.45 | E 3.54 | F 2.85 | H 2.37 | I 2.9 | K 1.38 | L 2.05 | M 2.6 | N 2.77 | P 4.04 | Q 2.81 | R 2.39 | T 1.99 | V 2.76 | Y 2.65
C17: A 2.98 | D 1.47 | E 2.63 | F 2.34 | G 3.08 | H 2.58 | I 2.04 | K 1.83 | L 2.23 | M 2.38 | N 1.99 | P 3 | R 1.78 | S 2.81 | T 3.4 | W 2.44 | Y 2.55
A18: C 4.64 | D 2.39 | E 2.31 | F 2.32 | G 1.11 | H 2.28 | I 2.33 | K 2.82 | L 3.23 | M 3.66 | N 2.07 | P 2.65 | Q 2.02 | R 3.11 | S 1.6 | T 2.3 | V 1.92 | Y 2.47
T19: A 2.22 | D 3.26 | E 3.24 | F 3.47 | G 2.93 | I 2.58 | K 3.24 | L 2.15 | M 3.1 | N 2.42 | P 2.5 | Q 1.43 | R 1.64 | S 2.67 | W 2.05 | Y 3.13
L20: A 3.72 | C 2.91 | D 2.36 | E 1.9 | F 3.14 | G 2.44 | H 2.36 | I 2.38 | K 2.4 | M 2.52 | N 2.9 | P 2 | Q 1.93 | R 2.34 | S 2.54 | T 2.07 | V 2.36 | Y 3.25
L21: A 3.11 | D 1.71 | E 1.72 | F 3.52 | G 2.21 | H 4.41 | N 3.01 | P 2.25 | S 1.65 | T 2.04 | V 2.17 | W 2.8
P22: A 3.01 | G 2.29 | H 3.65 | K 3.2 | R 3.03
A23: C 1.89 | D 2.79 | E 3.69 | F 3.27 | G 2.37 | H 1.66 | I 3.11 | L 1.69 | M 1.66 | N 3.13 | P 1.79 | Q 2.72 | R 3.3 | T 2.42 | V 1.49 | Y 1.75
S24: A 1.39 | C 4.56 | D 1.92 | E 1.74
